Measurements taken from patent publication US20240024498A1 (JIANGSU HENGRUI PHARMACEUTICALS, published 2024).
Where a chain is given by its changes, count along the chain named. Like-named read-outs stand apart in the source and are kept apart here. Blank lines part the entries; values can stand above or below the binder they belong to.

Experiments:
human Claudin18.2 [1] = target: T1, human Claudin18.2 (human); assay: cell-based ELISA (absorbance at 450 nm) on fixed NUGC4 cells stably expressing Claudin18.2
T1 construct: also called hClaudin18.2; huClaudin18.2
Method: (§1) Cell-based ELISA assay was used to test the binding properties of the Claudin18.2 antibodies. The stably transfected Claudin18.2-expressing NUGC4 cells were cultured in a 96-well cell plate (Corning, 3599). When growing at 90% density, the cells were immobilized with 4% paraformaldehyde for 1 h. The plate was washed 3 times with PBST buffer (pH 7.4 PBS containing 0.05% Tween-20), and a PBS-diluted 5% skim milk (powdered skim milk from Brightdairy) blocking solution was added at 200 μL/well. The plate was incubated in a 37° C. incubator for 2.5 h or was let stand at 4° C. overnight (16-18 h) for blocking. After blocking, the blocking solution was removed. The plate was washed 3 times with the PBST buffer, and then a test antibody that was diluted with a sample diluent (pH 7.4 PBS containing 1% skim milk) to different concentrations was added at 50 μL/well. The plate was incubated in a 37° C. incubator for 2 h. […] The plate was incubated at 37° C. for 1 h. The plate was washed 6 times with PBST, and then TMB chromogenic substrate (KPL, 52-00-03) was added at 50 µL/well. The plate was incubated at room temperature for 10-15 min, and the reaction was terminated by adding 1 M H₂SO₄ at 50 μL/well. The absorbance at 450 nm was read using an MD Versa Max™ microplate reader, and the binding EC50 value of the Claudin18.2 antibody to Claudin18.2 was calculated.

human Claudin18.2 [2] = target: T1, human Claudin18.2; assay: flow cytometry on HEK293/hClaudin18.2 cells, Scatchard plot
Method: On the day of experiment, HEK293/hClaudin18.2 cells were collected into a U-bottomed 96-well plate at 1×10⁵ to 2×10⁵ cells per well. A human Claudin18.2 antibody that was 2× diluted serially (12 concentration points) from an initial concentration of 5 μg/mL was added, and the plate was incubated at 4° C. for 1 h. IMAB362 was used as a positive control, and a negative control with no antibody was also provided. The antibody was removed by centrifugation, and FITC anti-human IgG Fc antibody (200×) was added at 100 μL/well. The plate was incubated in the dark at 4° C. for 30 min and washed twice with PBS+2% FBS before flow cytometry analysis. BD FACS CantoII was started and preheated, and then the BD FACSDiva software was run to start a new experiment. […] The samples in the U-bottomed 96-well plate were tested at the saved voltage, and data were recorded. The experimental data were analyzed using Flowjo software to obtain a Geo mean, and an MESF-Geo Mean standard curve was fit according to the instructions for Quantum™ FITC-5 MESF Kit. The molar concentration of the human Claudin18.2 antibody bound to HEK293/hClaudin18.2 cells and the free antibody concentration were calculated according to the concentration fluorescence value of the FITC anti-human IgG Fc antibody, and the Bmax and the dissociation constant KD of the antibody were calculated through Scatchard plots.

human Claudin18.2 [3] = target: T1, human Claudin18.2; assay: cell-based or functional assay
human Claudin18.2 [4] = target: T1, human Claudin18.2; assay: cell-based ELISA on fixed NUGC4 cells stably expressing Claudin18.2
Method: as §1

human Claudin18.2 [5] = target: T1, human Claudin18.2; assay: as above; remark: listed apart in the source
Method: as §1

human Claudin18.2 [6] = target: T1, human Claudin18.2; assay: cell-based ELISA (absorbance at 450 nm) on fixed NUGC4 cells stably expressing Claudin18.2; remark: listed apart in the source
Method: as §1

human Claudin18.2 [7] = target: T1, human Claudin18.2; assay: as above; remark: listed apart in the source
Method: as §1

human Claudin18.2 [8] = target: T1, human Claudin18.2; assay: cell-based ELISA on fixed NUGC4 cells stably expressing Claudin18.2; remark: listed apart in the source
Method: as §1

human Claudin18.2 [9] = target: T1, human Claudin18.2; assay: cell-based or functional assay; remark: listed apart in the source

B4: ADC-4 (antibody, human IgG1, kappa, V domains shown)
VH: EVQLVESGGGLVQPGGSLRLSCAASGFTFSDYGIHWVRQAPGKGLEWIAYISRGSSTIYYADTVKGRFTISRDNAKNSLYLQMTSLRAEDTAVYYCARGGYDTRNAMDYWGQGTTVTVSS
VL: DIVMTQSPDSLAVSLGERATISCKSSQSLLNSGNQKNYLAWYQQKPGQPPKLLIYGASTRASGVPDRFSGSGSGTDFTLTISSLQAEDVAIYHCQNDLYYPLTFGQGTKLEIKR
modifications: compound 9-A coupled to sulfhydryl groups after TCEP reduction; mean drug loading n=4.06 per antibody; positions not given
in vitro cell killing EC50, NUGC4-claudin18.2 high expression cells (CellTiter-Glo) (human Claudin18.2 [9]): 12 nM | in vitro cell killing EC50, NUGC4-claudin18.2 low expression cells (CellTiter-Glo) (human Claudin18.2 [9]): 299 nM | in vitro cell killing Emax, NUGC4-claudin18.2 high expression cells (CellTiter-Glo) (human Claudin18.2 [9]): 85 | in vitro cell killing Emax, NUGC4-claudin18.2 low expression cells (CellTiter-Glo) (human Claudin18.2 [9]): 61

B5: ADC-3 (antibody, human IgG1, kappa, V domains shown)
VH: B4 VH
VL: B4 VL
modifications: compound 9-A coupled to sulfhydryl groups after TCEP reduction; mean drug loading n=2.51 per antibody; positions not given
in vitro cell killing EC50, NUGC4-claudin18.2 high expression cells (CellTiter-Glo) (human Claudin18.2 [9]): 94 nM | in vitro cell killing EC50, NUGC4-claudin18.2 low expression cells (CellTiter-Glo) (human Claudin18.2 [9]): > 500 nM | in vitro cell killing Emax, NUGC4-claudin18.2 high expression cells (CellTiter-Glo) (human Claudin18.2 [9]): 78.7 | in vitro cell killing Emax, NUGC4-claudin18.2 low expression cells (CellTiter-Glo) (human Claudin18.2 [9]): 49

B6: ADC-5 (antibody, human IgG1, kappa, V domains shown)
VH: B4 VH
VL: B4 VL
modifications: compound 9-A coupled to sulfhydryl groups after TCEP reduction; mean drug loading n=6.8 per antibody; positions not given
in vitro cell killing EC50, NUGC4-claudin18.2 high expression cells (CellTiter-Glo) (human Claudin18.2 [9]): 3.5 nM | in vitro cell killing EC50, NUGC4-claudin18.2 low expression cells (CellTiter-Glo) (human Claudin18.2 [9]): 142 nM | in vitro cell killing Emax, NUGC4-claudin18.2 high expression cells (CellTiter-Glo) (human Claudin18.2 [9]): 95.9 | in vitro cell killing Emax, NUGC4-claudin18.2 low expression cells (CellTiter-Glo) (human Claudin18.2 [9]): 69.9

B7: ADC-2 (antibody, human IgG1, kappa, V domains shown)
VH: B4 VH
VL: B4 VL
modifications: compound 9-A coupled to sulfhydryl groups after TCEP reduction; mean drug loading n=7.1 per antibody; positions not given
in vitro cell killing EC50, NUGC4-claudin18.2 high expression cells (CellTiter-Glo) (human Claudin18.2 [9]): 1.9 nM | in vitro cell killing EC50, NUGC4-claudin18.2 low expression cells (CellTiter-Glo) (human Claudin18.2 [9]): 109 nM | in vitro cell killing EC50, NUGC4-claudin18.2 moderate expression cells (CellTiter-Glo) (human Claudin18.2 [9]): 16.8 nM | in vitro cell killing Emax, NUGC4-claudin18.2 high expression cells (CellTiter-Glo) (human Claudin18.2 [9]): 91.1 | in vitro cell killing Emax, NUGC4-claudin18.2 low expression cells (CellTiter-Glo) (human Claudin18.2 [9]): 69.8

Now from value to binder:

Emax (human Claudin18.2 [1]): 1.11 | Kd (human Claudin18.2 [2]): 10.2 nM | ADCC effect, IC50 (FcrR3A-V158-NFAT-RE-Jurkat reporter; NUGC4 cells, high Claudin18.2 expression) (human Claudin18.2 [3]): 0.133 µg/mL | ADCC effect, IC50 (FcrR3A-V158-NFAT-RE-Jurkat reporter; NUGC4 cells, low Claudin18.2 expression) (human Claudin18.2 [3]): 0.183 µg/mL | ADCC effect, IC50 (FcrR3A-V158-NFAT-RE-Jurkat reporter; NUGC4 cells, moderate Claudin18.2 expression) (human Claudin18.2 [3]): 0.21 µg/mL | EC50 (human Claudin18.2 [4]): 0.108 nM | EC50 (human Claudin18.2 [5]): 0.086 nM | Emax (human Claudin18.2 [6]): 0.88 | Emax (human Claudin18.2 [7]): 1.18 | EC50 (human Claudin18.2 [8]): 0.187 nM
B1: IMAB-362 (antibody, human IgG1, kappa, V domains shown)
VH: QVQLQQPGAELVRPGASVKLSCKASGYTFTSYWINWVKQRPGQGLEWIGNIYPSDSYTNYNQKFKDKATLTVDKSSSTAYMQLSSPTSEDSAVYYCTRSWRGNSFDYWGQGTTLTVSS
VL: DIVMTQSPSSLTVTAGEKVTMSCKSSQSLLNSGNQKNYLTWYQQKPGQPPKLLIYWASTRESGVPDRFTGSGSGTDFTLTISSVQAEDLAVYYCQNDYSYPFTFGSGTKLEIKR
notes: Positive control antibody, from WO2016166122; also called positive control antibody

EC50 (human Claudin18.2 [4]): 0.074 nM | Emax (human Claudin18.2 [7]): 1.27
B2: chimeric antibody ch1902 (antibody, human IgG1, kappa, V domains shown)
VH: EVQLQESGAELVKPGASVKLSCKASGYIFTSYWMHWVKQRPGQGLEWIGMIHPNSGSTNYNEKFKGKATLTLDKSSSTAYMQLSSLPSEDSAVYYCARLKTGNSFDYWGQGTTLTVSS
VL: B1 VL with M4L, V91I, D97A, S99T
notes: Murine mAb1902 variable regions on human IgG1 / kappa constant regions

Emax (human Claudin18.2 [1]): 1.44 | Kd (human Claudin18.2 [2]): 6.8 nM | ADCC effect, IC50 (FcrR3A-V158-NFAT-RE-Jurkat reporter; NUGC4 cells, high Claudin18.2 expression) (human Claudin18.2 [3]): 0.0262 µg/mL | ADCC effect, IC50 (FcrR3A-V158-NFAT-RE-Jurkat reporter; NUGC4 cells, low Claudin18.2 expression) (human Claudin18.2 [3]): 0.0224 µg/mL | ADCC effect, IC50 (FcrR3A-V158-NFAT-RE-Jurkat reporter; NUGC4 cells, moderate Claudin18.2 expression) (human Claudin18.2 [3]): 0.0154 µg/mL | EC50 (human Claudin18.2 [5]): 0.076 nM
B3: h1901-11 (antibody, human IgG1, kappa, V domains shown)
VH: B4 VH
VL: B4 VL
notes: Humanized antibody of mAb1901, L3 + H3, human IgG1/kappa

Emax (human Claudin18.2 [1]): 1.22 | EC50 (human Claudin18.2 [5]): 0.116 nM
B8: h1901-12 (antibody, human IgG1, kappa, V domains shown)
VH: B4 VH with I48V, I70M
VL: B4 VL
notes: Humanized antibody of mAb1901, L3 + H4, human IgG1/kappa

EC50 (human Claudin18.2 [4]): 0.098 nM | Emax (human Claudin18.2 [7]): 1.4
B9: chimeric antibody ch1901 (antibody, human IgG1, kappa, V domains shown)
VH: EVQLMESGGGLVKPGGSLKLSCAASGFTFSDYGIHWVRQAPEMGLEWIAYISRGSSTIYYADTVKGRFTMSRDNAKNTLFLQMTSLRSEDTAMYYCARGGYDTRNAMDYWGQGTSVTVSS
VL: DIVMTQSPSSLSVSAGEKVTMSCKSSQSLLNSGNQKNYLAWYQQKPGQPPKLLIYGASTRASGVPDRFTGSGSGTDFTLTISSVQAEDLAIYHCQNDLYYPLTFGAGTKLELKR
notes: Murine mAb1901 variable regions on human IgG1 / kappa constant regions
